Values belong to the substance of their own block, whether it stands above or below them.
Experiments:
[1] = molecular target: membrane-bound HLA-E (human); experiment: flow cytometry on a panel of 22 melanoma cell lines
[2] = molecular target: membrane-bound HLA-E (human); experiment: flow cytometry on short term cultured melanocytes
[3] = molecular target: membrane-bound HLA-E (human); experiment: cell-based or functional assay
[4] = molecular target: CD94/NKG2A receptor (human) (UniProt Q13241); experiment: cell-based or functional assay
Chain of UniProt Q13241 (Q13241 other isoform, or with tags, fused parts or gaps, chain 1 of 2): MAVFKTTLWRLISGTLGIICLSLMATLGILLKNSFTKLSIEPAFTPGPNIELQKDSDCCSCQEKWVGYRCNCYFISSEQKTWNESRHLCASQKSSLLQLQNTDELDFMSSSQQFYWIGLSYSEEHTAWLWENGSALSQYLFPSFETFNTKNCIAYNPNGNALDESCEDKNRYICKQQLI
Chain of UniProt Q13241 (chain, as listed by the source, chain 2 of 2): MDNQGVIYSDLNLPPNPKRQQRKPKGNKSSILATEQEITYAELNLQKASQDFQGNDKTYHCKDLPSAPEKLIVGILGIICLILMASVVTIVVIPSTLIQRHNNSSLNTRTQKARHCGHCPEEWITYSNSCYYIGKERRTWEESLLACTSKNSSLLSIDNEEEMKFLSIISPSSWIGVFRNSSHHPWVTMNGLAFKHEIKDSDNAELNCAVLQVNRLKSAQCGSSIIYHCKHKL

- ratio fluorescence intensity (RFI) (ratio (MFI test / MFI negative control)) [1]: 1 to 4
- ratio fluorescence intensity (RFI) (ratio (MFI test / MFI negative control)) [2]: 3 to 7
Substance: anti-HLA-E mAb MEM-E/07 (antibody)

Substance: anti-HLA-E mAb MEM-E/06 (antibody)
- NK-mediated cytotoxicity, specific lysis (51Cr release) of IFNγ-activated HAEC (% specific lysis) [3]: 34.9

Substance: membrane-bound HLA-E (from UniProt P61769 21-119) (peptide-MHC)
- NK-mediated cytotoxicity, specific lysis (51Cr release) of ECs (% specific lysis) [4]: 2.6

From patent publication US20090081226A1
